The test system of the data set is FLP recombinase (Saccharomyces cerevisiae (2-micron plasmid)). Description: cell_activity.

With E. coli chromosome without FRT, under “no chromosomal FRT, 4 experiments”, the activity (Tet^R colonies per trial) was 0. The activity (colonies per plate) (non-target strain with IPTG, 0 without) is 1.
As to minimal wild-type FRT (from pJFS36), under “lambda FRT36 integration at lacZ-FRT with IPTG (39 without), lacY-FRT 206 with and 247 without”, the activity (colonies per plate) worked out at 139.

(Values after patent publication US6140129.)
